Article PMC4596477, “Interaction of Myosin Phosphatase Target Subunit (MYPT1) with Myosin Phosphatase-RhoA Interacting Protein (MRIP): A Role of Glutamic Acids in the Interaction” (PLoS ONE, 2015)

B1: GST-tagged full-length MRIP: full-length MRIP protein with GST-tag, expressed in bacteria (protein, UniProt Q6WCQ1 1-1025, looked up)
chain: MSAAKENPCRKFQANIFNKSKCQNCFKPRESHLLNDEDLTQAKPIYGGWLLLAPDGTDFDNPVHRSRKWQRRFFILYEHGLLRYALDEMPTTLPQGTINMNQCTDVVDGEGRTGQKFSLCILTPEKEHFIRAETKEIVSGWLEMLMVYPRTNKQNQKKKRKVEPPTPQEPGPAKVAVTSSSSSSSSSSSIPSAEKVPTTKSTLWQEEMRTKDQPDGSSLSPAQSPSQSQPPAASSLREPGLESKEEESAMSSDRMDCGRKVRVESGYFSLEKTKQDLKAEEQQLPPPLSPPSPSTPNHRRSQVIEKFEALDIEKAEHMETNAVGPSPSSDTRQGRSEKRAFPRKRDFTNEAPPAPLPDASASPLSPHRRAKSLDRRSTEPSVTPDLLNFKKGWLTKQYEDGQWKKHWFVLADQSLRYYRDSVAEEAADLDGEIDLSACYDVTEYPVQRNYGFQIHTKEGEFTLSAMTSGIRRNWIQTIMKHVHPTTAPDVTSSLPEEKNKSSCSFETCPRPTEKQEAELGEPDPEQKRSRARERRREGRSKTFDWAEFRPIQQALAQERVGGVGPADTHEPLRPEAEPGELERERARRREERRKRFGMLDATDGPGTEDAALRMEVDRSPGLPMSDLKTHNVHVEIEQRWHQVETTPLREEKQVPIAPVHLSSEDGGDRLSTHELTSLLEKELEQSQKEASDLLEQNRLLQDQLRVALGREQSAREGYVLQATCERGFAAMEETHQKKIEDLQRQHQRELEKLREEKDRLLAEETAATISAIEAMKNAHREEMERELEKSQRSQISSVNSDVEALRRQYLEELQSVQRELEVLSEQYSQKCLENAHLAQALEAERQALRQCQRENQELNAHNQELNNRLAAEITRLRTLLTGDGGGEATGSPLAQGKDAYELEVLLRVKESEIQYLKQEISSLKDELQTALRDKKYASDKYKDIYTELSIAKAKADCDISRLKEQLKAATEALGEKSPDSATVSGYDIMKSKSNPDFLKKDRSCVTRQLRNIRSKSVIEQVSWDT
modifications: full-length GST tag
B2: MRIP: Myosin phosphatase-RhoA interacting protein (protein, UniProt Q6WCQ1 1-1025, looked up)
chain: MSAAKENPCRKFQANIFNKSKCQNCFKPRESHLLNDEDLTQAKPIYGGWLLLAPDGTDFDNPVHRSRKWQRRFFILYEHGLLRYALDEMPTTLPQGTINMNQCTDVVDGEGRTGQKFSLCILTPEKEHFIRAETKEIVSGWLEMLMVYPRTNKQNQKKKRKVEPPTPQEPGPAKVAVTSSSSSSSSSSSIPSAEKVPTTKSTLWQEEMRTKDQPDGSSLSPAQSPSQSQPPAASSLREPGLESKEEESAMSSDRMDCGRKVRVESGYFSLEKTKQDLKAEEQQLPPPLSPPSPSTPNHRRSQVIEKFEALDIEKAEHMETNAVGPSPSSDTRQGRSEKRAFPRKRDFTNEAPPAPLPDASASPLSPHRRAKSLDRRSTEPSVTPDLLNFKKGWLTKQYEDGQWKKHWFVLADQSLRYYRDSVAEEAADLDGEIDLSACYDVTEYPVQRNYGFQIHTKEGEFTLSAMTSGIRRNWIQTIMKHVHPTTAPDVTSSLPEEKNKSSCSFETCPRPTEKQEAELGEPDPEQKRSRARERRREGRSKTFDWAEFRPIQQALAQERVGGVGPADTHEPLRPEAEPGELERERARRREERRKRFGMLDATDGPGTEDAALRMEVDRSPGLPMSDLKTHNVHVEIEQRWHQVETTPLREEKQVPIAPVHLSSEDGGDRLSTHELTSLLEKELEQSQKEASDLLEQNRLLQDQLRVALGREQSAREGYVLQATCERGFAAMEETHQKKIEDLQRQHQRELEKLREEKDRLLAEETAATISAIEAMKNAHREEMERELEKSQRSQISSVNSDVEALRRQYLEELQSVQRELEVLSEQYSQKCLENAHLAQALEAERQALRQCQRENQELNAHNQELNNRLAAEITRLRTLLTGDGGGEATGSPLAQGKDAYELEVLLRVKESEIQYLKQEISSLKDELQTALRDKKYASDKYKDIYTELSIAKAKADCDISRLKEQLKAATEALGEKSPDSATVSGYDIMKSKSNPDFLKKDRSCVTRQLRNIRSKSVIEQVSWDT
modifications: full-length

How the values were obtained:
[1] = GST-tag, expressed in bacteria, after affinity purification
Description: Sedimentation velocity was performed over a range of concentrations of MRIP^545-878 (1.5–13.6 μM), MRIP^724-878 (4.7–42.3 μM), and MRIP^724-837 (7.5–67.1 μM) (Fig 2A).
To elucidate the stoichiometries of the MRIP peptides, the SedAnal program was used for curve fitting (Fig 2B). […] Diffusion contains important information about the shape of the molecule and that information is used in the data analysis. The recovery of samples after centrifugation is essentially 99% of the loading materials. […] The root mean square deviation (RMSD) of the fit was 0.010. […] The RMSD of the fit was 0.008.
We expressed and purified the MRIP peptide (residues 545–929) and the full-length MRIP protein using a chitin-binding tag and a GST-tag, respectively in bacteria.

full-length MYPT1 = settings: immunoprecipitation and immunoblotting; ref [7],[11],[12]; cited from earlier work
Description: It is, however, not clear which residues of MRIP are critical for its binding to MYPT1.

Molecule	precipitation [1]	interaction with full-length MYPT1 (full-length MYPT1)
B1	precipitated after affinity purification	
B2		interacts with the full-length MYPT1
